We go through 2 substances from US6808893.

Test [1] concerns the target EAAT4, full-length glutamate transporter (rat) (UniProt O35921). In words: cell-based or functional assay.
Test [2] concerns the target GTRAP4-48 (glutamate transporter 4 associated protein), full-length (rat) (UniProt Q9ES67). In words: cell-based or functional assay.

Sequence of EAAT4, full-length glutamate transporter (rat) (O35921 whole entry): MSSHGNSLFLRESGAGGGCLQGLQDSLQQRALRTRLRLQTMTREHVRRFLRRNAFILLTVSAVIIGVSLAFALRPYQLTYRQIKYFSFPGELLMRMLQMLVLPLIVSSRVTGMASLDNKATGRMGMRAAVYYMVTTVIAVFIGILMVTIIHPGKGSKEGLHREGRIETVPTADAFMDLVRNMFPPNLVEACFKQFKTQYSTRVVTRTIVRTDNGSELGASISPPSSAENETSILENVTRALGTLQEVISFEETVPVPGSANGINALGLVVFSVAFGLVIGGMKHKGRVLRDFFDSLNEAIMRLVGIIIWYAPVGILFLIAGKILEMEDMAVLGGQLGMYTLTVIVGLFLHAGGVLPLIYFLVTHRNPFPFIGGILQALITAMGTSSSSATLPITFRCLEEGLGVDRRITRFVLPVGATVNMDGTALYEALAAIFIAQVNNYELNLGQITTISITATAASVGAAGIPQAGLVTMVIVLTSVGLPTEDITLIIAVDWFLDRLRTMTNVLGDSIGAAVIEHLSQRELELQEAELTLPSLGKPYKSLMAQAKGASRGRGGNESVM
Sequence of GTRAP4-48 (glutamate transporter 4 associated protein), full-length (rat) (Q9ES67 whole entry): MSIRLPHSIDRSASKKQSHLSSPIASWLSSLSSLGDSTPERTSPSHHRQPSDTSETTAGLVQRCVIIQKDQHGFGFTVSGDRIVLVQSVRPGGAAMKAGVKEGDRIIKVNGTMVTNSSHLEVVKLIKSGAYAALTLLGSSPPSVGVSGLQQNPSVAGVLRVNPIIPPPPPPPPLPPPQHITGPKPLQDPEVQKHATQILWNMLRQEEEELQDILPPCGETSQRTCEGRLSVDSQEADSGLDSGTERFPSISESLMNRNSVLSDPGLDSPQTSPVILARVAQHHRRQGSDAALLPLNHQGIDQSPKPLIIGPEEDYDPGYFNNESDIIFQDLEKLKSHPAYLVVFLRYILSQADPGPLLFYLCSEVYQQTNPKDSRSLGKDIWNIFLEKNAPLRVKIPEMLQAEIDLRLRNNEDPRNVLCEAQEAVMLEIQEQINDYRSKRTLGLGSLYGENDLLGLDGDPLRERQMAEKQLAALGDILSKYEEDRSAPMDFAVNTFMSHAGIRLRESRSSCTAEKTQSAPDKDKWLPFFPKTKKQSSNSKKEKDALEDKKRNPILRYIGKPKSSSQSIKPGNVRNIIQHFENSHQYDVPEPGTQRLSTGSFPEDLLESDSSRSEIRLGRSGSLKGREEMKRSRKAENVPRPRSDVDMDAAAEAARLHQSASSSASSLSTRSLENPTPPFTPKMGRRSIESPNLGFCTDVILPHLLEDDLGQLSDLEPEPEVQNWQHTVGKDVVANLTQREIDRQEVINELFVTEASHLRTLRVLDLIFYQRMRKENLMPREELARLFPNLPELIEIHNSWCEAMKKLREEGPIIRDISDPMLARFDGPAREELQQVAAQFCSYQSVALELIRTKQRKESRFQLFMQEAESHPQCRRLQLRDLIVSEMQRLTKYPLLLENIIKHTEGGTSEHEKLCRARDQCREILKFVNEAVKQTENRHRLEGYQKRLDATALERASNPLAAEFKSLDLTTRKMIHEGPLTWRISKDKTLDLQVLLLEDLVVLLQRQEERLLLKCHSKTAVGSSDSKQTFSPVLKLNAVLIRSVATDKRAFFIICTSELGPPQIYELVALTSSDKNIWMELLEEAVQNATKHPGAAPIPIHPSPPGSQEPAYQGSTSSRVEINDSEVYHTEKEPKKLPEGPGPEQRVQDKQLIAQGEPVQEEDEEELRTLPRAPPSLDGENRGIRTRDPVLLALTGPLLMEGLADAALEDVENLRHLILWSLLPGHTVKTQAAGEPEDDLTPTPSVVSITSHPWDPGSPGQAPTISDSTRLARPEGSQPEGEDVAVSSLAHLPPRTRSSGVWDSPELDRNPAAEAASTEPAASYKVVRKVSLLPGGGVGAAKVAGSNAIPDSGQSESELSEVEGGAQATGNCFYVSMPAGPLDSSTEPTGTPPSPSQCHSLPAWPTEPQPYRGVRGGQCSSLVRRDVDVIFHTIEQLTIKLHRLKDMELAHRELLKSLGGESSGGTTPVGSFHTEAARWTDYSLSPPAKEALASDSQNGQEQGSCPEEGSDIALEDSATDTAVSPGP

In the case of “GTRAP4-41 (glutamate transporter 4 associated protein), full-length, Q9QWN8 2-2388”, in test [1], the Km of Na+-dependent L-[3H]-glutamate uptake with GTRAP41 came out at 11 µM, the Na+-dependent glutamate transport in HEK-rEAAT4 cells is 2 fold and the Vmax of Na+-dependent L-[3H]-glutamate uptake with GTRAP41 was 605 pmol/mg/min.
Turning to “myc-tagged construct encoding the last 77 amino acids of EAAT4 (from UniProt O35921 485-561)”, the GTRAP4-48 mediated increase of EAAT4 uptake activity in HEK-rEAAT4 cells in test [2] amounted to 25%.
